In test [1] the target is Folate receptor-alpha (FOLR1) (human) (UniProt P15328). Put plainly: summary table; cell binding through the folate moiety.
For test [2], the target named is T1, cyno CD3 (cyno (cynomolgus monkey), UniProt Q95LI5 22-198).
T1 construct: whole, on cells; also called CD3 on Cynomolgus T-cells
Put plainly: cell binding, activated cyno PBMC.

Test [3] has as its target T2, human CD3 (human, UniProt P07766 23-207).
T2 construct: whole, on cells; also called CD3 on human T-cells
The test is described as follows: cell binding, human PBMC.

Test [4] addresses T2, human CD3. The test is described as follows: cell binding, activated human PBMC.
The target of test [5] is T1, cyno CD3. The test is described as follows: cell binding, activated cyno PBMC; E. coli protein.
For test [6], the target named is Folate receptor-alpha (FOLR1) (human) (UniProt P15328). The test is described as follows: cell binding, SKOV-3 cells with 50 nM SFA; through the folate moiety; SKOV-3 cells, with 50 nM SFA; binding through the conjugated folate.
The target in test [7] is T2, human CD3. Put plainly: cell binding, human CD3, 50 nM SFA present.
The target in test [8] is T2, human CD3. Put plainly: summary table; cell binding EC50, human PBMC.
Test [9] deals with T1, cyno CD3. The test is described as follows: cell binding, cynomolgus T-cells.
The target in test [10] is T2, human CD3. Put plainly: cell binding, human CD3 (activated human PBMC); human CD3 (first number of the cell). The method, then: (§1) Testing for CD3 binding with activated human and cyno PBMC: To distinguish between the humanized anti-CD3 antibodies generated, binding to human CD3 was tested using activated human PBMCs (n=2). The activation of PBMCs and subsequent fluorescence-based CD3 binding assays were followed as described previously (see for example, Angew Chem Int Ed Engl, 52(46):12101-12104, 2013). […] The binding of the remaining 6 humanized antibodies to both human and cyno CD3 using activated human and cyno PBMCs, respectively, was titrated. […] The six (6) humanized anti-CD3 antibodies were obtained as follows: Fab1, Fab2 and Fab3 wildtype were generated by combination of LC ((vL1.2+CL); (SEQ.ID. NO:7)) and HC ((vH1.2+CH1); (SEQ.ID. NO:1)), ((vH1.1+CH1); (SEQ.ID. NO:2)) and ((vH1.0+CH1); (SEQ.ID. NO:3)) respectively. Fab4, Fab 5 and Fab6 wildtype were generated by combination of LC ((vL1.1+CL); (SEQ.ID. NO:8)) and HC ((vH1.2+CH1); (SEQ.ID. NO:1)), ((vH1.1+CH1); (SEQ.ID. NO:2)) and ((vH1.0+CH1); (SEQ.ID. NO:3)) respectively.
(§2) Binding of Folate-conjugated Fabs to human and cyno CD3: Binding of E. coli produced and Folate-conjugated low-affinity variants of humanized anti-CD3 Fabs was performed as described in the above Examples.

Test [11] deals with Folate receptor-alpha (FOLR1) (human) (UniProt P15328). The test is described as follows: summary table; FRα affinity over CD3 affinity.
The target in test [12] is T2, human CD3. The test is described as follows: cell binding, activated human PBMC; E. coli protein.
Test [13] addresses Folate receptor-alpha (FOLR1) (human) (UniProt P15328). Put plainly: cell binding, FOLRα-expressing KB cells; through the folate moiety.
The target in test [14] is T2, human CD3. Put plainly: cell binding, human T-cells. Details: Bmax: unit not given here.
For test [15], the target named is T1, cyno CD3. Put plainly: cell binding, cyno CD3 (activated cyno PBMC); cyno CD3 (second number of the cell). On the procedure:
as §1, §2

For test [16], the target named is T2, human CD3. Put plainly: cell binding, human T-cells; assigned to the Bi5KPEG-BiFolate / BiFolate pair from Table 37.
For test [17], the target named is T2, human CD3. Put plainly: cell binding, human PBMC, 20 nM SFA present.

The source of these data is patent publication US20210317213A1 (AMBRX, published 2021).

T2 sequence (P07766 23-207): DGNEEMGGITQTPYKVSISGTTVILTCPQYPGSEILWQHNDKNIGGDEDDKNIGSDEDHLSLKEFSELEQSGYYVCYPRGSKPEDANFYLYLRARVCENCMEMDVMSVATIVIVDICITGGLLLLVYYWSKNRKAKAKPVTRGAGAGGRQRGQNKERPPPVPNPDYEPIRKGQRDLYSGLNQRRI
T1 sequence (Q95LI5 22-198): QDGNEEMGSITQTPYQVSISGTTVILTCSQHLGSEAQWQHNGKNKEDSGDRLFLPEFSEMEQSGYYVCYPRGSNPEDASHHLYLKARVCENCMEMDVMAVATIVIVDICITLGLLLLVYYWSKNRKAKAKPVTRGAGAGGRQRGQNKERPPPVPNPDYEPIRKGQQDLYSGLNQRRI
Chain of Folate receptor-alpha (FOLR1) (human) (P15328 25-234): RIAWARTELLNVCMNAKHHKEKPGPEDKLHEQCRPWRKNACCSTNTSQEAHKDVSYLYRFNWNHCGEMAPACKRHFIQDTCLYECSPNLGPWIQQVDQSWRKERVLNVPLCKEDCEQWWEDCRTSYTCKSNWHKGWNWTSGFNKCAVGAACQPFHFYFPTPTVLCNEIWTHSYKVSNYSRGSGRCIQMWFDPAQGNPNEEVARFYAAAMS

B1: Fab1-HK129-Folate (Fab, V domains shown)
VH: EVQLVESGGGLVQPGGSLRLSCAASGFTFNTYAMNWVRQAPGKGLEWVARIRSKYNNYATYYADSVKDRFTISRDDSKNILYLQMNSLKTEDTAVYYCVRHGNFGNSYVSWFAYWGQGTLVTVSS
VL: QAVVTQEPSLTVSPGGTVTLTCRSSTGAVTTSNYANWVQQKPGQAPRGLIGGTNKRAPGTPARFSGSLLGGKAALTLSGAQPEDEAEYYCALWYSNLWVFGGGTKLTVLG
modifications: pAF at HK129 (Kabat) conjugated to folate (oxime)
notes: From E. coli; also called Folate lead; parent control
B1: the FRα binding affinity in test [1] came out at 59.6 nM. Further, the EC50 with cyno CD3 [2] came out at 1.41 nM; in the test with human CD3 [3] it was 2.45 nM; with human CD3 [4] it was 2.78 nM; with cyno CD3 [5], 2.05 nM; in [6] it was 44.5 nM; with human CD3 [7], 2 nM. For the same molecule, the EC50 with human CD3 [10] amounted to 2.31 nM; with human CD3 [12], 1.69 nM; with cyno CD3 [15] it was 3.3 nM. The CD3 binding affinity with human CD3 [8] turned out to be 1.69 nM. For the same molecule, the Bmax in the test with cyno CD3 [9] worked out at 25700; in [13], 101000; in the test with human CD3 [14], 30100. Further, the Kd with cyno CD3 [9] is 2.69 nM; in test [13] it was 1.97 nM; in the test with human CD3 [14], 1.53 nM. Besides, the Affinity ratio (FRα:CD3) in test [11] turned out to be 35.

B2: Fab1-HK129-LL157-BiFolate-Bi5KPEG (Fab, V domains shown)
VH: B1 VH
VL: B1 VL
modifications: pAF at LL157 (Kabat) conjugated to a bifunctional linker carrying folate and 5K PEG (oxime); pAF at HK129 (Kabat) conjugated to a bifunctional linker carrying folate and 5K PEG (oxime)
notes: From E. coli; carries two folates and two 5K PEG; also called Fab1-HK129-LL157-Bi5KPEG-BiFolate
With B2, the EC50 with human CD3 [7] was 7.5 nM; in the test with human CD3 [17] it was 5.7 nM. The Bmax with cyno CD3 [9] was determined as 13200; in [13], 83100; with human CD3 [14], 15300. In addition, the Kd with cyno CD3 [9] turned out to be 5.01 nM; in test [13], 2.28 nM; in the test with human CD3 [14], 3.34 nM. Also, the “fold lower binding affinity (vs the non-pegylated version)” value with human CD3 [16] is approximately 5 fold.
